Consider five molecules from US20250154240A1, “ANTI-HUMAN CXCL1 ANTIBODY” (CHIOME BIOSCIENCE INC., priority 2022, published 2025).

The test system of test [1] is OCUM-12 gastric cancer cell line. In words: Antitumor activity test, model with OCUM-12 orthotopic transplantation (prevention model). In kind it is in vivo, mouse. Particulars: for Antitumor activity (tumor growth, tumor size): 20 mg/kg intraperitoneally twice a week from the day following transplantation. On the procedure:
A model with OCUM-12 orthotopic transplantation was prepared to evaluate the above 4 types of candidate antibodies for their in vivo CXCR2 migration inhibitory activity and antitumor activity in a xenograft model with OCUM-12 orthotopic transplantation.
For use as mice, female nude mice (BALB/cAJcl-nu/nu) at 5 to 6 weeks of age were purchased from CLEA Japan, Inc., Japan. For use as human cancer cells, a gastric cancer cell line, OCUM-12, was provided by University Public Corporation Osaka, Japan.
OCUM-12 cells were cultured in D-MED medium (FUJIFILM Wako Pure Chemical Corporation, Japan) supplemented with 10% fetal bovine serum (FBS; Sigma-Aldrich Corporation) and 1/100 volumes of a penicillin-streptomycin mixture (Nacalai Tesque, Inc., Japan). The cells to be transplanted were detached with 0.25% trypsin/0.02% EDTA (Thermo Fisher Scientific) and washed with PBS, and 4× 10^5 cells per mouse were transplanted into the gastric wall of each mouse.
On the day following the above transplantation, the mice were randomized into groups (8 or 6 mice per group) and intraperitoneally administered with PBS as a control and with 4 types of candidate antibodies (1A-7H10, 4A-2F7, 5A-5E11 and 028-8-12) and 3 types of non-candidate antibodies (1A-3C6, 1A-2H3 and 4A-5B11) at a dose of 20 mg/kg. In addition, mouse IgG1 as a control was intraperitoneally administered at a dose of 20 mg/kg, and 3 types of antibodies (5A-5E11, 1A-4H10 and 4A-7G7) among the candidate antibodies were intraperitoneally administered at a dose of 20 mg/kg. The administration of these antibodies was then continued with a frequency of twice a week until the completion of the test. After 3 weeks had passed from the transplantation, the mice were sacrificed, and the short- and long-axis diameters of tumors formed in their gastric walls were each measured with a caliper. The tumor size was calculated according to the following: 1/2 short-axis diameter (mm)×1/2 long-axis diameter (mm)×3.14.
Navarixin is among small molecular compounds that act on CXCR2 and inhibit CXCL1-CXCR2 signaling. […] Then, using a model with OCUM-12 orthotopic transplantation, the migration inhibition of CXCR2-expressing cells and antitumor activity were evaluated in vivo for Navarixin. As a vehicle, ultrapure water containing 20% 2-hydroxypropyl-β-cyclodextrin (FUJIFILM Wako Pure Chemical Corporation, Japan) was used. Navarixin (MedChemExpress) was dissolved in ultrapure water containing 20% 2-hydroxypropyl-β-cyclodextrin, and orally administered at a dose of 100 mg/kg/day in a schedule of once a day for 5 consecutive days, followed by a 2-day withdrawal.
The humanized antibodies were evaluated for their in vivo antitumor activity and CXCR2 migration inhibitory activity in a xenograft model with OCUM-12 orthotopic transplantation. Procedures for the evaluation are shown below.
For use as mice, female nude mice (BALB/cAJcl-nu/nu) at 5 to 6 weeks of age were purchased from CLEA Japan, Inc., Japan. For use as human cancer cells, gastric cancer cell line, OCUM-12, was provided by Osaka Metropolitan University, Japan.
OCUM-12 cells were cultured in D-MED medium (FUJIFILM Wako Pure Chemical Corporation, Japan) supplemented with 10% fetal bovine serum (hereinafter abbreviated as FBS; Sigma-Aldrich Corporation) and 1/100 volumes of a penicillin-streptomycin mixture (Nacalai Tesque, Inc., Japan). The cells to be transplanted were detached with 0.25% trypsin/0.02% EDTA (Thermo Fisher Scientific) and washed with PBS, and 4×10^5 cells per mouse were transplanted into the gastric wall of each mouse. On the day following the transplantation, the mice were randomized into groups (8 mice per group) and intraperitoneally administered with test antibodies at a dose of 400 μg/head. PBS was intraperitoneally administered in a volume of 200 μL with a frequency of twice a week for 3 weeks, starting from the day following the transplantation. […]

A further test addresses T1, human CXCL2 (Homo sapiens, UniProt P19875).
T1 sequence (P19875 35-107): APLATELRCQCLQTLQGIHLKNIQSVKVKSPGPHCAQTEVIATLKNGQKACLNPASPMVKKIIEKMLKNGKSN
In words: Binding to human CXCL2.

The next test has as its system CyCXCL1. In words: Ca2+ Flux assay, CyCXCL1 neutralizing activity in AequoScreen/CXCR2 cells. The test is classed as cell-based, cynomolgus monkey. Conditions: CyCXCL1 100 ng per ml; antibody 10 μg per ml. On the procedure: For evaluation of neutralizing activity against CyCXCL1, CyCXCL1-induced changes in intracellular calcium ions in AequoScrenn/CXCR2 cells were measured as the luminescence intensity of aequorin.
AequoScrenn/CXCR2 cells were adjusted in the same manner as shown in [2-2] above. After CyCXCL1 was added to 96-well plates in an amount of 100 ng per ml, purified antibodies were each added in an amount of 10 μg per ml, and the plates were allowed to stand at room temperature for 30 minutes. To these plates, the AequoScree/CXCR2 cell suspension was added in a volume of 50 μL per well, immediately followed by measurement of luminescence intensity.
An antibody found to completely suppress CyCXCL1-induced luminescence from aequorin was determined to have cross-reactivity and indicated with “o” while an antibody found to not completely suppress luminescence from aequorin was indicated with “x” in Table A above.

Sequence of CyCXCL1 (as listed by the source): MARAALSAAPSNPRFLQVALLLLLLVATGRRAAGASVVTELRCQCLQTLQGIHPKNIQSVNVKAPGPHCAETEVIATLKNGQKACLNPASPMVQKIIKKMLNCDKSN
Sequence of CyCXCL1 (P25025 whole entry partner): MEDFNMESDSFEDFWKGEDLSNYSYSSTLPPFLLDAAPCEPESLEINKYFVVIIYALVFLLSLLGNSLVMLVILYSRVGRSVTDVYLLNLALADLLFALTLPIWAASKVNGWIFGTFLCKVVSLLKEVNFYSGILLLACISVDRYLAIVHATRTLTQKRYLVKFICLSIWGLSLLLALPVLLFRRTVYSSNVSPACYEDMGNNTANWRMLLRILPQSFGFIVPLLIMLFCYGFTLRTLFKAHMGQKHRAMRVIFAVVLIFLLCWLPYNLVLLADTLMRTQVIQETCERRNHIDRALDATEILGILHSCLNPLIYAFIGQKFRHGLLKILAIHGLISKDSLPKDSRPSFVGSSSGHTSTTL

B1: 4A-2F7: mouse monoclonal anti-HuCXCL1 antibody clone; VH SEQ ID NO: 9, VL SEQ ID NO: 13 (antibody, listed as Mus musculus, V domains shown)
VH: QVTLKESGPGILKPSQTLSLTCSFSGFSLSTSGMGVDWIRQPSGKGLEWLAHIWWDDDKYYNPSLKSQLTISKDTSRNQVFLKITSVDTADTATYYCARSYGYDMDYYAMDYWGQGTSVTVSS
VL: DIQMTQSPSSLSASLGERVSLTCRASQEISGYLSWLQQKPDGTIKRLIYAASTLDSGVPKRFSGSRSGSDYSLTISSLESEDFADYYCLQYASYPPWTFGGGTKLEIK
In the case of B1, in test [1] (3 weeks, compared to PBS), the “Antitumor activity (tumor growth, tumor size)” value is “significantly suppress tumor growth”. In addition, the “Binding to human CXCL2” value with human CXCL2 is “also bind”. Also, the “CyCXCL1 neutralizing activity Ca^2+ Flux assay” value with CyCXCL1 is given as “∘”.

B2: Hu5A-5E11: humanized antibody VH1/VL1; VH SEQ ID NO: 76, VL SEQ ID NO: 78 (antibody, V domains shown)
VH: QVQLVQSGAEVKKPGSSVKVSCKASGYAFSDYWMNWVRQAPGQGLEWIGQIYPGSGDTNYNAKFKGKGTITADKSTSTAYMELSSLRSEDTAVYYCARERDYDVAMDYWGQGTTVTVSS
VL: DIQMTQSPSSLSASVGDRVTITCKASQDINKYIAWFQQKPGKAPKLVIHYTSILQPGVPSRFSGSGSGTDYTFTISSLQPEDIATYYCLQYDNLPWTFGGGTKVEIK
For B2, in test [1] (400 μg/head intraperitoneally twice a week, 3 weeks, compared to hIgG1 antibody), the “Antitumor activity (tumor area)” value is reported as “significantly suppress an increase in the tumor area”. The “Dose significantly suppressing the tumor area” value in test [1] (prevention model, compared to PBS) is listed as no less than 60 μg/head.

B3: 5A-5E11: mouse monoclonal anti-HuCXCL1 antibody clone; VH SEQ ID NO: 17, VL SEQ ID NO: 21 (antibody, listed as Mus musculus, V domains shown)
VH: QVQLQQSGAELVRPGSSVKISCKASGYAFSDYWMNWVKQRPGQGLEWIGQIYPGDGDTNYNGKFKGKGTLTADKSSSTAYMQLNSLTSEDSAVYFCARERDYDVAMDYWGQGTSVTVSS
VL: DIQMTQSPSSLSASLGGKVTITCKASQDINKYIAWFQHKPGKGPRLVIHYTSILQPGIPSRFSGVGSGRDYSFSIRNLEPEDIATYYCLQYDNLPWTFGGGTKLEIK
Turning to B3, the “Antitumor activity (tumor growth, tumor size)” value in test [1] (3 weeks, compared to PBS) is “significantly suppress tumor growth”. In addition, in the test with human CXCL2, the “Binding to human CXCL2” value is on record as “also bind”. In addition, in the test with CyCXCL1, the “CyCXCL1 neutralizing activity Ca^2+ Flux assay” value is listed as “∘”.

B4: 1A-7H10: mouse monoclonal anti-HuCXCL1 antibody clone; VH SEQ ID NO: 1, VL SEQ ID NO: 5 (antibody, listed as Mus musculus, V domains shown)
VH: QVQLKESGPVLVAPSQSLSITCSVSGFSSTTYGVHWVRQPPGQGLEWLGVIWAGGSTNYNSALMSRLSISKDNSKSQVFLKMNSLQTDDTAMYYCATQYHYPFAYWGQGTLVTVSA
VL: NIVMTQSPKSMSMSVGERVTLSCKASENVGIYVSWYQQKPEQSPKLMIYGASNRNTGVPDRFTGSGSATDFTLTISSVQAEDLADYYCGQSYSYPLTFGAGTKLELK
B4: the “Antitumor activity (tumor growth, tumor size)” value in test [1] (3 weeks, compared to PBS) is on record as “significantly suppress tumor growth”. In the test with human CXCL2, the “Binding to human CXCL2” value was “also bind”. In the test with CyCXCL1, the “CyCXCL1 neutralizing activity Ca^2+ Flux assay” value is “∘”.

B5: 028-8-12: human antibody against CXCL1 from the human ADLib technique; VH SEQ ID NO: 25, VL SEQ ID NO: 29 (antibody, listed as Gallus gallus, V domains shown)
VH: EVQLLESGGGLVQPGGSLRLSCAASGFTFSELSMSWVRQAPGKGLEWVSAISGSGGSTYYADSVKGRFTISRDNSKNTLYLQMNSLRAEDTAVYYCAREGGRLEPYYYYYAMDVWGQGTPVTVSS
VL: DIQMTQSPSSLSASVGDRVTITCRASQSISDNLHWYQQKPGKAPKLLIYDASNLESGVPSRFSGSGSGTDFTLTINSLQPEDFATYYCQQYYSTPLTFGQGTKLEIK
Turning to B5, the “Antitumor activity (tumor growth, tumor size)” value in test [1] (3 weeks, compared to PBS) is “significantly suppress tumor growth”. Further, the “Binding to human CXCL2” value in the test with human CXCL2 is given as “also bind”. Further, the “CyCXCL1 neutralizing activity Ca^2+ Flux assay” value with CyCXCL1 was “∘”.
